In general, Km refers to the concentration of substrate that gives half-maximal velocity.

For the data set, the system named is T1, O[C@H]1[C@H](O)[C@@H](O)[C@H](O)[C@@H](O)[C@H]1O.
T1 construct: full-length CDS with C-terminal dileucine motif mutated (LL489/490AA) for plasma membrane targeting; cRNA-injected Xenopus laevis oocytes
As to the kind of experiment: two-electrode voltage clamp, inward currents in Xenopus oocytes, Michaelis-Menten fit. The data set is classed as cell-based, Beta vulgaris. The settings on record: pH 5.5, room temperature, holding potential -20 mV, 96 mM NaCl bath, inositol/H+ symport, n = 7 oocytes. Background: In two-electrode clamp one electrode senses voltage and the other passes current.

Turning to “BvINT1;1 LL489/490AA (INT1;1^PM, BvINT1;1^PM) (Beta vulgaris subsp. vulgaris; L489A/L490A)”, the Km was found to be 2300 ± 300 µM.

The values above are taken from publication PMC11963481, “The Vacuolar Inositol Transporter BvINT1;1 Contributes to Raffinose Biosynthesis and Reactive Oxygen Species Scavenging During Cold Stress in Sugar Beet” (Plant, Cell & Environment, 2025).
